The record followed here is patent US20180215804A1.

In assay [1] the target is CD28/GFP fusion protein on transfected HEK293T cells (UniProt P10747). The assay can be described thus: competition: flow cytometry contour plot, CD28/GFP cells co-incubated with B7-2/Cherry cells in the presence of p2TA at 0.3 µg ml-1 (16.0 % without peptide, Fig. 6D). Background: In flow cytometry, cells or beads pass a laser one at a time.
The target is the same in assay [2]. In words: competition: flow cytometry contour plot, CD28/GFP cells co-incubated with B7-2/Cherry cells in the presence of p2TA at 1 µg ml-1 (16.0 % without peptide, Fig. 6D).
In assay [3] the target is CD28-Fc (human) (UniProt P10747). In words: not stated at that place; binding to human CD28 (SPR with CD28-Fc is the only affinity experiment of the filing).
For assay [4], the target named is CD28/GFP fusion protein on transfected HEK293T cells (UniProt P10747). In words: flow cytometry contour plot, CD28/GFP cells co-incubated with B7-2C/Cherry cells, no peptide (negative control).

On to (D-Ala)-p2TA-(D-Ala) (peptide), for which the percent double labeled cells (upper right quadrant) at 0.3 µg ml-1 p2TA in assay [1] was 10.3%. Besides, in assay [2], the percent double labeled cells (upper right quadrant) at 1 µg ml-1 p2TA was 8.1%. In assay [3], this substance registered an equilibrium dissociation constant (Kd) of 2000 nM.

Consider “B7-2C/Cherry fusion protein on transfected HEK293T cells (from UniProt P42081 24-329) (ligand)”, for which the percent double labeled cells (upper right quadrant) in assay [4] came to 1.5%.

What is called Kd is a measure of binding affinity in units of concentration. Read a low Kd as higher affinity.
